Test results from patent publication US20200368125A1, “FAST-ACTING BIOCIDAL CLEANSING COMPOSITION” (Conopco, Inc., d/b/a UNILEVER, priority 2017, published 2020).

Assay: Zeta potential measured using Malvern Zetasizer
Assay type: physicochemical
Conditions: 2 ml sample; alkaline (KOH) aqueous medium
Procedure: The Zeta Potential was measured using Malvern Zetasizer (2 ml sample). […] The error bar of ±0.2 mV […]. […] Usually Proteins tend to destabilise/degrade in the presence of strong alkalis like KOH but the stability of the complex, so prepared, was confirmed by ^1H NMR. […] Surface charge around protein changes with change with complex.

Substance: sericin
- Zeta Potential: −15±0.2 mV
